The target of one test is T1, mouse TAFI (mouse, UniProt Q9JHH6 22-422).
T1 construct: also called Carboxypeptidase B2 (CPB2)
T1 sequence (looked up): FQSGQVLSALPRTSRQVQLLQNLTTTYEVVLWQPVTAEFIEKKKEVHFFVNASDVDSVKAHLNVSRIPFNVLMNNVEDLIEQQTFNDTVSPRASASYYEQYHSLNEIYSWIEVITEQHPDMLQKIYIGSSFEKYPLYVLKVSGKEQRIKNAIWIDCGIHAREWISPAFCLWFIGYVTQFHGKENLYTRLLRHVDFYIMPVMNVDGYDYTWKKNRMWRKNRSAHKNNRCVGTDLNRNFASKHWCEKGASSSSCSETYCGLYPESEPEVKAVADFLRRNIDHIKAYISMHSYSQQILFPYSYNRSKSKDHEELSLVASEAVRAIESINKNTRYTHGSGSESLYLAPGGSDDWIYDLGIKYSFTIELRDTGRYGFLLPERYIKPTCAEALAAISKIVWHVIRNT
The test can be described thus: sandwich ELISA: plate coated with recombinant mouse PAI-1, diabody, mouse TAFI, HRP-conjugated MA-TCK32G12. The protocol: (§1) Db-TCK26D6x33H1F7 (0.8 mg/kg) was administered IV via tail vein injection in mice (n=6). Prior to the experiment, blood was withdrawn on 0.38% trisodium citrate (=pre-sample). Post injection, blood was withdrawn on 0.38% trisodium citrate at several time points: 5 min, 45 min, 3 hours, 6 hours and 24 hours. Diabody concentrations in corresponding plasma samples were determined by an ELISA based on the simultaneous binding of the diabody towards PAI-1 and TAFI. Wells of polystyrene microtiter plates were incubated with 200 μl recombinant mouse PAI-1 in PBS (pH 7.4; 4 μg/ml) for 72 hours at 4° C., emptied and treated for two hours with PBS supplemented with 1% (m/v) bovine serum albumin. After washing, serial two-fold dilutions (180 μl) of plasma samples were added to the wells and incubated overnight at 4° C. Then, the wells were washed and incubated with 170 μl mouse TAFI (0.1 μg/ml) for 2 hours at room temperature. Subsequently, plates were washed and 160 μl HRP-conjugated MA-TCK32G12 (directed against TAFI) was added to the wells followed by incubation for 2 hours at room temperature. All washing steps were performed with PBS containing Tween 80 (0.002%) and dilutions were made in PBS containing Tween 80 (0.002%) and bovine serum albumin (0.1% m/v). […] The absorbance was measured at 492 nm. […]

For the next test, the target named is T2, mouse PAI-1 (mouse, UniProt P22777 23-402).
T2 construct: also called recombinant mouse PAI-1
T2 sequence (looked up): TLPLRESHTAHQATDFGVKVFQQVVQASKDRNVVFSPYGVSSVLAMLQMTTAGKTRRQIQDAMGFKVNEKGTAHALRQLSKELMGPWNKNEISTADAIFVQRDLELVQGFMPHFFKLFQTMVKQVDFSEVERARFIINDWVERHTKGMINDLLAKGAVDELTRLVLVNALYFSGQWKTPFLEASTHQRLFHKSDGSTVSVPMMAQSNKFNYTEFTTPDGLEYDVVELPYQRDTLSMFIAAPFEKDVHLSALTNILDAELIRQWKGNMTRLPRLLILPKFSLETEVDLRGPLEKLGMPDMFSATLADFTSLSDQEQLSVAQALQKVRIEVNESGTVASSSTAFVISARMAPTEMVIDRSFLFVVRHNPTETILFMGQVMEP
The test is described as above. The protocol:
as §1

B1: Db-TCK26D6x33H1F7 (bispecific antibody)
chain 1: QVQLQQSGPELVKPGASVKISCKASGYTFTDNNMDWAKQSHGKSLEWIGSIYSNNGGTIYNQKFKGKATLNVDTSSSTAYMELRSLTSEDTAVYYCAREMSDGPYWFFDVWGTGTTVTVSGAKTTPKLGGDIQMTQSPSSLSASLGDRVTISCRASQDISNFLDWYQQKPDGTVKLLIYYTSRLHSGVPSRFSGSGSGTDYSLTISKLEQEDIATYFCQQGNTFPPTFGGGTKLEIKRADAAAAGSEQKLISEEDLNSHHHHHH
chain 2: QVQLQQSGAEVVKPGASVKLACTASGFNIKDTYIHWVKQGPEQGLEWIGRIDPANGNTKYDSKFQDKATITADTSSNTAYLHLSSLTSEDTAVYYCVRGDYDYVYFDYWGQGTTVTVSSAKTTPKLGGDIQMTQSPASLSVSVGETVTITCRASENIFRNLVWYQQKQGKSPQLLVYSATNLVDGVPSRFSGSGSGTQYSLKINSLQSEDFGSYYCQHFWGTPRTFGGGTKLEIKRADTAPTGSEQKLISEEDLNSHHHHHH
notes: also called diabody
Take B1: the binding result in the test with mouse TAFI and with mouse PAI-1 was “binds” each time.

(Values after patent US20160347859A1 (KATHOLIEKE UNIVERSITEIT LEUVEN, published 2016).)
